Molecular target: T1, FLAG-ADAR1p110-WT (UniProt P55265-5 1-931)
T1 construct: ADAR1 (ADAR, DRADA), nuclear p110 isoform, wild type; also called F-ADAR1p110-WT; F-ADAR1p110; source: HEK293T, stably expressing (p3XFLAG-CMV-10 plasmid co-transfected with pPUR), in lysate of formaldehyde-fixed cells
T1 sequence (looked up): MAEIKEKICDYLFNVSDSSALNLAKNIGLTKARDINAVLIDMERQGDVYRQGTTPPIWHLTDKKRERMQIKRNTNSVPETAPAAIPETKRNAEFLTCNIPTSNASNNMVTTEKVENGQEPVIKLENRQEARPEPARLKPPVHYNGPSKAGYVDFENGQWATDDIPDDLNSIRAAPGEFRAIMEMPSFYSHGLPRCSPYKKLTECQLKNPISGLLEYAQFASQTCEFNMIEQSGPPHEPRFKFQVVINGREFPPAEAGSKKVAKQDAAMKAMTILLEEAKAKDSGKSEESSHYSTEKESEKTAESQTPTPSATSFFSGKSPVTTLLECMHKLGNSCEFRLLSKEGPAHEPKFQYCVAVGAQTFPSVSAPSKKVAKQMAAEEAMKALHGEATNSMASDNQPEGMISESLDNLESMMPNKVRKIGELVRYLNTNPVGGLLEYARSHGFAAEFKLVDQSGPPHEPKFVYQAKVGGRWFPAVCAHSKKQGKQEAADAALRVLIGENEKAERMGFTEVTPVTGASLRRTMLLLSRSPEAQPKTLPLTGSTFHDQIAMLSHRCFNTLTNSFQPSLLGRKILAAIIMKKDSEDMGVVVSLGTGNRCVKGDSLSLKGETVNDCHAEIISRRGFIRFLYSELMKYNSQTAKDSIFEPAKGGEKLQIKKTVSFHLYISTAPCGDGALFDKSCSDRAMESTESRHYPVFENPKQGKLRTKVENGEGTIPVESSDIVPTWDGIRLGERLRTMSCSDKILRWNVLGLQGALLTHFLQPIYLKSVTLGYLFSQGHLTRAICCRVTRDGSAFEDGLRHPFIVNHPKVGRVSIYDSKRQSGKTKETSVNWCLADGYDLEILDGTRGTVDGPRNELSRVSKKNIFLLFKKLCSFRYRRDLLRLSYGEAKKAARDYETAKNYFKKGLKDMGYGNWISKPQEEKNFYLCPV
Assay: co-IP; cells expressing the FLAG-tagged bait fixed with 0.3% formaldehyde, lysed in co-IP buffer (50 mM Tris-HCl pH 7.6, 150 mM NaCl, 1 mM EDTA, 1% NP-40, 0.5% sodium deoxycholate, 0.1% SDS, RNasin Plus) and sonicated; anti-FLAG M2 magnetic beads overnight at 4 °C; immunoblot; for Fig. 10c HEK293T cells unsynchronized or synchronized at M phase (thymidine-nocodazole)
Details: partners not purified

B1: RNase H2A (natural protein, human (endogenous in HEK293T), UniProt O75792 1-299, looked up)
chain: MDLSELERDNTGRCRLSSPVPAVCRKEPCVLGVDEAGRGPVLGPMVYAICYCPLPRLADLEALKVADSKTLLESERERLFAKMEDTDFVGWALDVLSPNLISTSMLGRVKYNLNSLSHDTATGLIQYALDQGVNVTQVFVDTVGMPETYQARLQQSFPGIEVTVKAKADALYPVVSAASICAKVARDQAVKKWQFVEKLQDLDTDYGSGYPNDPKTKAWLKEHVEPVFGFPQFVRFSWRTAQTILEKEAEDVIWEDSASENQEGLRKITSYFLNEGSQARPRSSHRYFLERGLESATSL
notes: RNase H2 subunit A (RNaseH2A, AGS4), endogenous; also called RNase H2 subunit H2A; endogenous RNase H2A; source: endogenous, HEK293T lysate
For B1, the “fold increase of the co-IP in M-phase synchronized against unsynchronized cells” value was greater than 3 fold.
